Assay results reported in PMC4361793.

What was measured:
[1] = molecular target: mussel foot protein-3 slow (mfp-3s), hydrophobic variant (Mytilus californianus); assay: surface forces apparatus
[2] = molecular target: mussel foot protein-3 slow (mfp-3s), hydrophobic variant (Mytilus californianus); assay: QCM-D

| Substance | cohesive energy Wc (tc ~ 2 min) [1] [mJ/m^2] | adsorbed hydrated mass after adding mfp-3s to TiO2 pre-exposed to COL1A1 [2] [ng/cm^2] | total adsorbed hydrated mass of COL1A1/mfp-3s on TiO2 [2] [ng/cm^2] | cohesive energy Wc of mfp-3s films with COL1A1 between them [1] [mJ/m^2] |
| --- | --- | --- | --- | --- |
| mussel foot protein-3 slow (mfp-3s), hydrophobic variant (natural protein) | 5.4 |  |  |  |
| rat-tail tropocollagen type-1 (COL1A1) (from UniProt P02454 152-1207; P02466 86-1125) (natural protein) |  | 209 | 445 | 7.2 |
